Measurements from patent US20260139001A1 (Harvard, published 2026).

Target: RBD (Severe acute respiratory syndrome …, UniProt P59594)

B1: Wuhan-NS (VHH72 NoK V104K conjugated with NBD-x; V104NBDxK) (VHH)
VHH: QVQLQESGGGLVQAGGSLRLSCAASGRTFSEYAMGWFRQAPGREREFVATISWSGGSTYYTDSVRGRFTISRDNARNTVYLQMNSLRPDDTAVYYCAAAGLGTKVSEWDYDYDYWGQGTQVTVSS
- EC50: 123 nM
